In patent US20120196335A1, “LIGF-TYPE TRANSFORMANTS FOR BIOCONVERSION OF LIGNIN-DERIVED COMPOUNDS” (priority 2010, published 2012):

B1: LigF2: N. aromaticivorans beta-etherase polypeptide, glutathione S-transferase-like protein, GenBank ABD27301.1, SEQ ID NO:541 (protein)
chain: MALKYYHAEPLANSLKSMVPLKEKGLAYESIYVDLHKFEQHQPWFTAINPEGQVPVLDHDGTIITHTTVINEYLEDAFPDAQPADAPLRPRDPVGAARMRYWNKFIDEHVMNYVSMHGWHRMVGVIARNIASGDFEKLLESIPLPDQRKKWATARSGFSEADLANATAKIEYALDKVEKQLGETKWLAGDTYTLADINFYSHCGAMVERMFPEMEVARRAPRLCEWRDRVAARPAVAEALKSEDRTAPGLRVWSGEVR
B2: ligE1: N. aromaticivorans beta-etherase polypeptide, glutathione S-transferase-like protein, GenBank ABD26841.1, SEQ ID NO:101 (protein)
chain: MAANNTITFYDLALSTGATISPFVWATKYALKHKGFDLDVVPGGFTGILERTGGKTERLPAIVDDGEFVLDSWGIVEYLDAKYPDRPVLIPHESVAATLKALDNWFWNAAVGPWMFCFCQDYRDLSLPQDHEYVTHSREKMLGRKLEEVQAGREERLPKISAALEPLRAALAQHQWLGGSSPNYADYRIMGGILFTASVCKTPVLANDDPLRDWIERCLDLYGGLGRHPGLFPLFGLEQREGDPDLFNRAAGQGGIYKRNTGPESTRAETQRITEGMKK
B3: ABD26530.1: N. aromaticivorans putative beta-etherase polypeptide LigF-1, SEQ ID NO:539 (protein)
chain: MVIPLGEDNTIMLKLYSFGPAANSMKPLLTVFEKGLDVEKHRLDPAKFEHHTDWFKAINPRGQVPALVDGDKVVTESTVICEYLEDEYPTEVALRPADSFGKAQMRIWTKWVDEYFCWCVSTIGWHRYVGNMVKSLSDAEFEEKVKAIPVIEQQVKWRRAREGFPQDMLDEEMRKIAYSVRKLDDHLADHEWLVPGQYTLADICNFAIANGMQFGFAELVNKQDTPHLVRWIEQINERPAVKQMFAQVELEKLGPRE
B4: ABD27309.1: N. aromaticivorans putative beta-etherase polypeptide LigF-3, SEQ ID NO:545 (protein)
chain: MDEVSLYHWEPNANSGKPMLALMEKGVPFSSHYIDMLQFDQHKPEYLAINPQGTIPAMTHNGQVLTESTAIMEYVNDRFDGPDLMPADAQDRWRVRWWMKFMDQWLGPSFSMIGWSVFVGPMVRQRDPAELAAAIDRIPLPERRTAWRKAINGDFSESEMAESRRRVGLGIAKLEEELGKRPYVGSNQYSLADINIFNSTYSLPISQPDLAGKDRTPNIMRWLKRVYTREAVKKTWAMGKTDLAHRYGLIMAEIEG

System: not listed separately
Test: in vitro biochemical assay for beta-etherase activity on fluorescent substrate MUAV (clarified E. coli cell extracts)
Conditions: 0.1 mM MUAV substrate; E. coli cell extracts expressing the protein
Description: The model substrate synthesis 150 for use in the biochemical screening for selective activity can be outsourced through a contract research organization (CRO). The enzyme discovery effort can initially be focused on identifying potential beta-etherase candidate genes identified through bioinformatic methods. […] The fluorescent substrate α-O-(β-methylumbelliferyl)acetovanillone (MUAV), for example, can be used in in vitro assays to identify beta-etherase function (Acme Biosciences, Mt. View, Calif.). The formation of 4 methylumbelliferone (4MU) upon hydrolysis of the aryl ether bond can be monitored by fluorescence, for example, at λex=365 nm and λem=450 nm (or 460 nm).
The enzyme screening 155 is done to identify novel etherases 160. […] Expression of the beta-etherase genes can be done in 5 ml or 25 ml samples of the recombinant E. coli strains in LB medium using induction with IPTG. Following induction, and cell harvest, cell pellets can be lysed using the BPER (Invitrogen) cell lysis system. […] The formation of 4 methylumbelliferone (4MU) upon hydrolysis of the aryl ether bond in MUAV can be monitored by fluorescence at λex=365 nm and λem=460 nm, and can provide quantitative measurement of beta-etherase function. Cell extracts of E. coli transformed with the S. paucimobilis ligE and ligF genes can be the assay positive controls. Test or unknown samples can include, for example, E. coli strains expressing putative beta-etherase genes from N. aromaticovorans.
This example describes a method for gene expression in E. coli, as well as beta-etherase biochemical assays. Expression of known and putative beta-etherase genes was performed using 5 ml cultures of the recombinant E. coli strains described herein in Luria Broth medium by induction of gene expression using isopropylthiogalactoside (IPTG) to a final concentration of 0.1 mM. Following induction, and cell harvest, the cells were disrupted using either sonication or the BPER (Invitrogen) cell lysis system.
In vitro reactions were performed in a total volume of 200 ul and contained: 25 mM TrisHCl pH 7.5; 0.5 mM dithiothreitol; 1 mM glutathione; 0.05 mM or 0.1 mM MUAV; 10 ul of clarified cell extract used to initiate the reactions. Following incubation for 2.5 hours at room temperature, a 50 ul sample of the reactions was terminated using 150 uL of 300 mM glycine/NaOH buffer pH 9. The formation of 4 methylumbelliferone (4MU) upon hydrolysis of the aryl ether bond was monitored by the increase in fluorescence at λex=360 nm and λem=450 nm using a Spectramax UV/visible/fluorescent spectrophotometer.
The total protein concentrations of the cell lysates were determined using the BCA reagent system for protein quantification (Pierce).
Induction might be also performed using IPTG concentrations in the range of 0.01-1 mM. Cell disruption might be also performed using toluene permeabilization, French pressure techniques, or using multiple freeze/thaw cycles in conjunction with lysozyme. Assay conditions might be varied to include TrisHCl at 10-150 mM concentrations and in the pH range of 6.5-8.5; 0-2 mM dithiothreitol; 0.05-2 mM glutathione; 0.01-5 mM MUAV substrate; 22-42° C. reaction temperatures. The biochemical assay might be performed as a fixed time point assay with reaction times ranging from 5 minutes-12 hours, or performed continuously without quenching with glycine/NaOH buffer to extract enzyme kinetic parameters.

Row | Molecule | total activity (beta-etherase) [rfu/ug]
1 | B1 | 1206
2 | B2 | 529

Same assay, conditions: MUAV substrate

Row | Molecule | beta-etherase activity on the MUAV substrate (in words) | fold more efficient than S. paucimobilis LigF protein | fold more efficient than S. paucimobilis ligE beta-etherase enzyme
3 | B3 | beta-etherase activity | – | –
4 | B4 | beta-etherase activity | – | –
5 | B1 | beta-etherase activity | approximately 2 fold | –
6 | B2 | beta-etherase activity | – | approximately 75 fold

System: Saccharomyces cerevisiae
Test: not given
Conditions: each compound alone; cited from earlier work

Row | Molecule | antifungal activity against the yeast Saccharomyces cerevisiae
7 | COc1ccc(C=O)cc1OC [Veratraldehyde] | significant antifungal activities
8 | O=C(O)C=Cc1ccccc1 [cinnamic acid] | significant antifungal activities
9 | O=C(O)/C=C/c1cccc(O)c1 [m-coumaric acid] | significant antifungal activities
10 | O=C(O)/C=C/c1ccccc1O [o-coumaric acid] | significant antifungal activities
11 | O=C(O)/C=C/c1ccc(O)cc1 [p-coumaric acid] | significant antifungal activities
12 | COc1cc(C(=O)O)ccc1O [vanillic acid] | significant antifungal activities
13 | COc1cc(CCC(C)=O)ccc1O [vanillylacetone] | significant antifungal activities
